Target: T1, RNase A (Bos taurus (assumed; commercial RNase …, UniProt P61823)
T1 construct: RNase A (ribonuclease A), about 13.7 kDa, commercial; also called ribonuclease A; source: bought: Biofroxx (1263MG050)
Assay: SPR; BIAcore T200, CM5 chip; Asp. VHH captured on flow cell 4; RNase A injected at 0, 2, 10, 50 nM, multi-cycle kinetics; HBS-EP+ pH 7.4; 25 °C; 1:1 binding model
Details: both partners purified

T1 sequence (P61823 27-150): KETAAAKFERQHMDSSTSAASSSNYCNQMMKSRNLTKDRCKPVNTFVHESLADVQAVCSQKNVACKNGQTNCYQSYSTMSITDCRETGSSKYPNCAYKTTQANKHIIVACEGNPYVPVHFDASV

B1: anti-RNase A VHH expressed in pyrG auxotrophic Aspergillus oryzae (VHH)
VHH: QVQLVESGGGLVQAGGSLRLSCAASGYAYTYIYMGWFRQAPGKEREGVAAMDSGGGGTLYADSVKGRFTISRDKGKNTVYLQMDSLKPEDTATYYCAAGGYELRDRTYGQWGQGTQVTVSS
notes: DNA codon-optimized; about 13 kDa; also called Asp; VHH; anti-ribonuclease A VHH; source: pyrG(-) A. oryzae RIB40, secreted into the culture medium, purified (Ni-NTA IMAC, PD-10 desalting, Superdex 200 SEC); not shown: 8xHis, C-terminal, kept
B1 showed a Kd of 1.91 nM.

Reference: paper PMC10297652, “Large-Scale Production of Anti-RNase A VHH Expressed in pyrG Auxotrophic Aspergillus oryzae” (Current Issues in Molecular Biology, 2023)
